Measured values reported in article PMC9035890.

Legend:
[1] = biological target: Recombinant biotinylated protein A (Thermo Fisher 29989) (UniProt P38507); assay: SPR; Biacore T200, 25°C; biotinylated ligand captured on a CAP chip through the Biotin CAPture reagent; NISTmAb sample as analyte at 200 nmol/L in PBS-P+ pH 7.4, 50 μL/min, 100 s association, 300 s dissociation; response at the end of the association phase divided by that of NISTmAb Bex, mean of three independent experiments
[2] = biological target: Recombinant biotinylated protein L (Thermo Fisher 21189) (UniProt Q51918); assay: as above

| binding relative to NISTmAb Bex [1] | binding relative to NISTmAb Bex [2] | Substance |
| --- | --- | --- |
| 94.7% | 99.3% | NISTmAb oxidised in solution, 0.3% H2O2, 30 min (0.3%Nox0.5hr) (antibody) |
| 38.5% | 92.6% | NISTmAb oxidised in solution, 0.3% H2O2, 32 h (0.3%Nox32hr) (antibody) |
